From patent US20250236642A1 (NEC, published 2025) come the findings set out here.

Experiment [1] has as its target T1, HLA-A*02:01 molecule.
T1 construct: MHC class I molecule on T2 cells (ATCC); also called product of an HLA-A*02:01 gene; allele A*02:01
Put plainly: flow cytometry, T2 cells.

The target in experiment [2] is T2, HLA-A*24:02 molecule.
T2 construct: MHC class I molecule on C1R-A24 cells, endogenous peptide and b2m stripped at pH 3.3, purified b2m added back; also called product of an HLA-A*24:02 gene; allele A*24:02
Put plainly: flow cytometry, C1R-A24 cells.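 Further: Read-out was the amount of peptide–MHC complex on each cell, taken as the fluorescence intensity of a bound fluorescent antibody.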 For orientation: A flow cytometer gives signals particle by particle.
Description: Thereafter, the number of MHC-peps for each C1R-A24 cell (proportional to a fluorescence intensity of the fluorescent antibody) was quantitatively measured using a fluorescence cell analyzer FACScan (Becton-Dickinson).

In the case of FSNDFGQSL (synthetic 9-mer derived from Casp-8) [peptide of SEQ ID NO: 35], in experiment [1], the “log Kd” value is -3.9.

For GILSDHQQS (synthetic 9-mer derived from Casp-8) [peptide of SEQ ID NO: 74], in experiment [2], the “log10 Kd (M)” value was over -3. The “log Kd” value in experiment [1] is over -3.

On to THLDAGTVE (synthetic 9-mer derived from Casp-8) [peptide of SEQ ID NO: 75], for which the “log10 Kd (M)” value in experiment [2] was over -3. In addition, the “log Kd” value in experiment [1] is over -3.

In the case of GRVMQIDGV (synthetic 9-mer derived from Wnt5a) [peptide of SEQ ID NO: 68], the “log10 Kd (M)” value in experiment [2] is -4.63.

Turning to YVYDPPTTI (synthetic 9-mer derived from CADM1) [peptide of SEQ ID NO: 2], in experiment [2], the “log10 Kd (M)” value was -6.23. Also, the “log Kd” value in experiment [1] is -6.16.

Consider YTYDPPTTI (synthetic 9-mer derived from CADM1) [peptide of SEQ ID NO: 3], for which, in experiment [2], the “log10 Kd (M)” value is -5.51. The “log Kd” value in experiment [1] is -5.47.

Consider YLYDPPTTI (synthetic 9-mer derived from CADM1) [peptide of SEQ ID NO: 4], for which, in experiment [2], the “log10 Kd (M)” value was -6.16. The “log Kd” value in experiment [1] was -6.23.

B1: peptide of SEQ ID NO: 16 (peptide)
peptide: LLITRKSFI
notes: synthetic 9-mer derived from Fas; also called A10
Turning to B1, the “log10 Kd (M)” value in experiment [2] is -6.64. Further, in experiment [1], the “log Kd” value was -5.13.

Turning to LVITRKSFI (synthetic 9-mer derived from Fas) [peptide of SEQ ID NO: 30], in experiment [2], the “log10 Kd (M)” value was -5.46. Further, the “log Kd” value in experiment [1] is -4.01.

As to LMITRKSFI (synthetic 9-mer derived from Fas) [peptide of SEQ ID NO: 17], in experiment [2], the “log10 Kd (M)” value is -6.01. For the same molecule, the “log Kd” value in experiment [1] is -5.2.

For LTITRKSFI (synthetic 9-mer derived from Fas) [peptide of SEQ ID NO: 45], the “log10 Kd (M)” value in experiment [2] is -4.82.

Regarding LAITRKSFI (synthetic 9-mer derived from Fas) [peptide of SEQ ID NO: 46], the “log10 Kd (M)” value in experiment [2] was -5.12.

As to LHITRKSFI (synthetic 9-mer derived from Fas) [peptide of SEQ ID NO: 63], the “log10 Kd (M)” value in experiment [2] was -4.76.

LIITRKSFI (synthetic 9-mer derived from Fas) [peptide of SEQ ID NO: 29]: the “log10 Kd (M)” value in experiment [2] was -5.6. In experiment [1], the “log Kd” value was -4.11.

On to SLPNEKQTS (synthetic 9-mer derived from Casp-8) [peptide of SEQ ID NO: 69], for which the “log10 Kd (M)” value in experiment [2] is over -3. Further, in experiment [1], the “log Kd” value was over -3.

On to ILSDHQQSQ (synthetic 9-mer derived from Casp-8) [peptide of SEQ ID NO: 70], for which the “log10 Kd (M)” value in experiment [2] was over -3. Further, in experiment [1], the “log Kd” value was over -3.

Take EAIDGYITL (synthetic 9-mer; also called H1) [peptide of SEQ ID NO: 47]: the “log10 Kd (M)” value in experiment [2] is -5.54.

Regarding AQAPPTAQL (synthetic 9-mer derived from c-Myb) [peptide of SEQ ID NO: 5], the “log10 Kd (M)” value in experiment [2] is -5.75. The “log Kd” value in experiment [1] is -6.02.

For the molecule ALAPPTAQL (synthetic 9-mer derived from c-Myb) [peptide of SEQ ID NO: 6], the “log10 Kd (M)” value in experiment [2] is -5.33. In addition, the “log Kd” value in experiment [1] is -6.58.

As for ATAPPTAQL (synthetic 9-mer derived from c-Myb) [peptide of SEQ ID NO: 25], the “log10 Kd (M)” value in experiment [2] is -4.54. In experiment [1], the “log Kd” value was -5.

As to AYRTCWIFS (synthetic 9-mer derived from Casp-8) [peptide of SEQ ID NO: 49], the “log10 Kd (M)” value in experiment [2] was -5.42.

Take VLPPARHST (synthetic 9-mer derived from c-Myb) [peptide of SEQ ID NO: 54]: in experiment [1], the “log Kd” value was -5.11.

Regarding GYITCERPF (synthetic 9-mer derived from Helios) [peptide of SEQ ID NO: 65], the “log10 Kd (M)” value in experiment [2] was -6.52.

In the case of CLDEHQWQL (synthetic 9-mer derived from EVC1) [peptide of SEQ ID NO: 9], the “log10 Kd (M)” value in experiment [2] was -5.87. For the same molecule, in experiment [1], the “log Kd” value is -6.66.

Take CTDEHQWQL (synthetic 9-mer derived from EVC1) [peptide of SEQ ID NO: 39]: the “log Kd” value in experiment [1] is -5.04.

As for CIDEHQWQL (synthetic 9-mer derived from EVC1) [peptide of SEQ ID NO: 28], the “log10 Kd (M)” value in experiment [2] is -3.48. In addition, the “log Kd” value in experiment [1] was -4.85.

In the case of ASPSHMTSM (synthetic 9-mer derived from Helios) [peptide of SEQ ID NO: 81], the “log10 Kd (M)” value in experiment [2] is over -3. Besides, the “log Kd” value in experiment [1] is over -3.

Take SSFEFFEEA (synthetic 9-mer derived from c-Myb) [peptide of SEQ ID NO: 37]: the “log Kd” value in experiment [1] is -6.49.

Regarding GYITLGKPH (synthetic 9-mer derived from Helios) [peptide of SEQ ID NO: 80], the “log10 Kd (M)” value in experiment [2] was over -3. In experiment [1], the “log Kd” value was over -3.

In the case of SLLITRKSF (synthetic 9-mer derived from Fas) [peptide of SEQ ID NO: 62], the “log10 Kd (M)” value in experiment [2] was -5.84.

For HMAKVIEFL (synthetic 9-mer derived from EVC1) [peptide of SEQ ID NO: 38], the “log10 Kd (M)” value in experiment [2] is -6.03. Also, in experiment [1], the “log Kd” value was -5.69.

Take STGESAQTS (synthetic 9-mer derived from Casp-8) [peptide of SEQ ID NO: 71]: in experiment [2], the “log10 Kd (M)” value was over -3. Further, the “log Kd” value in experiment [1] is over -3.

Turning to LPFSPSQFL (synthetic 9-mer derived from c-Myb) [peptide of SEQ ID NO: 60], the “log10 Kd (M)” value in experiment [2] was -3.35.

On to ARHSTIPLV (synthetic 9-mer derived from c-Myb) [peptide of SEQ ID NO: 77], for which, in experiment [2], the “log10 Kd (M)” value was over -3. Also, the “log Kd” value in experiment [1] was over -3.

For the molecule IFADVSSST (synthetic 9-mer derived from c-Myb) [peptide of SEQ ID NO: 78], the “log10 Kd (M)” value in experiment [2] is over -3. In addition, in experiment [1], the “log Kd” value is over -3.

As for ALPKIRARV (synthetic 9-mer derived from EVC2) [peptide of SEQ ID NO: 12], in experiment [2], the “log10 Kd (M)” value was -6.18. The “log Kd” value in experiment [1] is -5.66.

On to TVLVPPRNL (synthetic 9-mer derived from CADM1) [peptide of SEQ ID NO: 48], for which, in experiment [2], the “log10 Kd (M)” value is -8.27.

As to FIDSDSSSW (synthetic 9-mer derived from c-Myb) [peptide of SEQ ID NO: 57], the “log10 Kd (M)” value in experiment [2] was -4.7.

Consider HMTSSERPF (synthetic 9-mer derived from Helios) [peptide of SEQ ID NO: 64], for which, in experiment [2], the “log10 Kd (M)” value is -4.16.

On to LMEEHGATL (synthetic 9-mer derived from EVC2) [peptide of SEQ ID NO: 13], for which, in experiment [2], the “log10 Kd (M)” value was -5.22. In experiment [1], the “log Kd” value was -4.92.

For the molecule LLEEHGATL (synthetic 9-mer derived from EVC2) [peptide of SEQ ID NO: 41], in experiment [1], the “log Kd” value is -5.6.

Turning to LTEEHGATL (synthetic 9-mer derived from EVC2) [peptide of SEQ ID NO: 42], the “log Kd” value in experiment [1] is -4.09.

For the molecule LIEEHGATL (synthetic 9-mer derived from EVC2) [peptide of SEQ ID NO: 40], the “log Kd” value in experiment [1] is -4.5.

As to LVEEHGATL (synthetic 9-mer derived from EVC2) [peptide of SEQ ID NO: 43], in experiment [1], the “log Kd” value is -4.18.

Regarding LHEEHGATL (synthetic 9-mer derived from EVC2) [peptide of SEQ ID NO: 79], the “log10 Kd (M)” value in experiment [2] was over -3. Besides, the “log Kd” value in experiment [1] was over -3.

In the case of CDLSSFEFF (synthetic 9-mer derived from c-Myb) [peptide of SEQ ID NO: 58], the “log10 Kd (M)” value in experiment [2] was -4.1.

Consider ISAYRTCWI (synthetic 9-mer derived from Casp-8) [peptide of SEQ ID NO: 34], for which the “log10 Kd (M)” value in experiment [2] was -5.

For the molecule GSPDEFSND (synthetic 9-mer derived from Casp-8) [peptide of SEQ ID NO: 72], the “log10 Kd (M)” value in experiment [2] was over -3. For the same molecule, in experiment [1], the “log Kd” value was over -3.

For the molecule KFLEAFHEV (synthetic 9-mer derived from EVC1) [peptide of SEQ ID NO: 8], in experiment [2], the “log10 Kd (M)” value is -6.88. In addition, the “log Kd” value in experiment [1] is -5.93.

As for SSLDPPKVL (synthetic 9-mer derived from c-Myb) [peptide of SEQ ID NO: 55], the “log10 Kd (M)” value in experiment [2] is -5.35.

Consider CMIVHQGTI (synthetic 9-mer derived from c-Myb) [peptide of SEQ ID NO: 36], for which the “log10 Kd (M)” value in experiment [2] was -5.54.

As for ATLAPAVLL (synthetic 9-mer derived from EVC1) [peptide of SEQ ID NO: 10], the “log10 Kd (M)” value in experiment [2] is -5.2. The “log Kd” value in experiment [1] is -5.56.

Regarding AVLAPAVLL (synthetic 9-mer derived from EVC1) [peptide of SEQ ID NO: 27], in experiment [2], the “log10 Kd (M)” value worked out at 4.81. In addition, the “log Kd” value in experiment [1] is -5.15.

On to ATGDCSSFI (synthetic 9-mer derived from c-Myb) [peptide of SEQ ID NO: 59], for which, in experiment [1], the “log Kd” value was -4.08.

In the case of SLPFSPSQF (synthetic 9-mer derived from c-Myb) [peptide of SEQ ID NO: 56], in experiment [2], the “log10 Kd (M)” value is -7.

For the molecule LLLFSAAAL (synthetic 9-mer derived from CADM1) [peptide of SEQ ID NO: 1], the “log10 Kd (M)” value in experiment [2] is -4.96. Further, the “log Kd” value in experiment [1] is -6.06.

Regarding YFFTVIFSF (synthetic 9-mer derived from Fas) [peptide of SEQ ID NO: 44], the “log10 Kd (M)” value in experiment [2] is -6.77.

Take LPPARHSTI (synthetic 9-mer derived from c-Myb) [peptide of SEQ ID NO: 76]: the “log10 Kd (M)” value in experiment [2] was over -3. Besides, the “log Kd” value in experiment [1] was over -3.

For the molecule SPDEFSNDF (synthetic 9-mer derived from Casp-8) [peptide of SEQ ID NO: 73], the “log10 Kd (M)” value in experiment [2] is over -3. Further, in experiment [1], the “log Kd” value was over -3.

B2: peptide of SEQ ID NO: 66 (peptide)
peptide: VFGRVMQID
notes: synthetic 9-mer derived from Wnt5a; also called A15
Take B2: the “log10 Kd (M)” value in experiment [2] is -5.41.
